# Measurements from the supplement of paper PMC12764529.
# ± gives the half width of the 95% confidence interval.
# Assays:
# [1] = folding stability dG unfold from trypsin proteolysis; higher = more stable
# In short: (§1)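 Only designs with AlphaFold2 dimer inter-PAE above 15 were retained; each was a mini-protein under 80 residues with no cysteine, in a PA-tagged cDNA display construct. After digestion with trypsin and chymotrypsin and sequencing, K50 was inferred by Bayesian fitting of counts, and unfolding free energy was derived per protease or combined against a sequence-predicted unfolded-state K50 and a shared folded-state K50.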
# [2] = folding stability dG unfold from chymotrypsin proteolysis; higher = more stable
# In short: as §1
# [3] = folding stability dG unfold (combined trypsin and chymotrypsin); higher = more stable
# In short: as §1
Sequence,folding stability dG unfold [1],folding stability dG unfold [2],folding stability dG unfold [3]
SAGGSAGGKSPEDRQRENMKPVPPIEVVEIRIPIPPGMPIDQAKNIASNLMEHLGVDYVRIEITSAGGSAGG [r6_517_TrROS],0.679 ± 0.038 kcal/mol,-0.478 ± 0.21 kcal/mol,0.297 ± 0.24 kcal/mol
SAGGSAGGKVTVDPAKVKAILTLKDGSKLIVLEDGVLLYNPKTEKVTLVSLSDLKKLPEDAPVPSAGGSAGG [r6_889_TrMRF],1.61 ± 0.042 kcal/mol,1.85 ± 0.026 kcal/mol,1.74 ± 0.054 kcal/mol
SAGGSAGGKWIHINPNSYNIKIQDPGSGKEEEIQFDSPEELIDEIKKQFPGVPVEIHPNGWFKISAGGSAGG [r6_288_TrROS],0.385 ± 0.022 kcal/mol,0.563 ± 0.11 kcal/mol,0.521 ± 0.091 kcal/mol
SAGGSAGGKYQEFEYMIMFPDGGMFRVKIEYSPNPGQVKIKIEFPGGEREITIPPGAPITIMPMSAGGSAGG [r6_927_TrROS],3.17 ± 0.23 kcal/mol,2.41 ± 0.054 kcal/mol,2.74 ± 0.23 kcal/mol
SAGGSAGGLEIVLPREELEELIRRGEIDEVEIERSEDDLVRARPIIRPPPPLPPEVGALLRALASAGGSAGG [r6_278_TrMRF],0.891 ± 0.2 kcal/mol,1.91 ± 0.088 kcal/mol,1.56 ± 0.37 kcal/mol
SAGGSAGGLGWGSFKLPFEFWDPANGMPMRNSINIMVIVIPPPPPKVEVEEDPDNGKKKVTYDDSAGGSAGG [r6_926_TrROS],2.67 ± 0.1 kcal/mol,3.31 ± 0.084 kcal/mol,2.95 ± 0.46 kcal/mol
SAGGSAGGLHPDEEFVVLFRIDVRARPVSPNAHPELKKKFPNAVIVEAKIDVLILPKEKVKELFSAGGSAGG [r6_830_TrMRF],2.84 ± 0.1 kcal/mol,3.44 ± 0.082 kcal/mol,3.18 ± 0.19 kcal/mol
SAGGSAGGLPEGDIYRIRVTLPNGNTFTITFPVKSVEQAKDFAKSFLESLGLPDVKVDIEPVPVSAGGSAGG [r6_844_TrROS],3.53 ± 0.065 kcal/mol,4.2 ± 0.044 kcal/mol,4 ± 0.074 kcal/mol
SAGGSAGGMEEIEIEINGKKAKIYRLPGDEDLFLIEVDGELYLVKVKKKDGKWEIVEVKKLDELSAGGSAGG [r6_915_TrROS_Hall],4.17 ± 0.29 kcal/mol,4.25 ± 0.091 kcal/mol,4.13 ± 0.16 kcal/mol
SAGGSAGGMEEIVLPIPEEVAKELIASGTVTKTQTEGNRTILTKTPPSGGSTKITVVLPPSYPSSAGGSAGG [r6_654_JUSTAS],1.2 ± 0.095 kcal/mol,1.24 ± 0.1 kcal/mol,1.35 ± 0.17 kcal/mol
SAGGSAGGMELISEKPAKVKYGDKEAEVWVKLVKIPNTDEVLVTLYFPGSGKPRIIPAKDVEIESAGGSAGG [r6_263_TrMRF],0.655 ± 0.1 kcal/mol,0.836 ± 0.18 kcal/mol,0.836 ± 0.19 kcal/mol
SAGGSAGGMELLPDGTLVLTLKAPSLEEALKAAEALAPPGAEVEIRFDEETKEVVIVIKLPPPESAGGSAGG [r6_859_TrROS_Hall],2.46 ± 0.1 kcal/mol,4.06 ± 0.046 kcal/mol,3.85 ± 0.082 kcal/mol
SAGGSAGGMEPLTRVTVELELPGGETRVVEGDDLEAVKERLKEELGLPDLVVKSVKTTPLPALESAGGSAGG [r6_406_JUSTAS],0.6 ± 0.045 kcal/mol,0.974 ± 0.027 kcal/mol,0.857 ± 0.077 kcal/mol
SAGGSAGGMIEVSYDPVKNRYIATFKFPEGEVTITLPADLSPEEKAAAIKAAAEAAAKEKGIKLSAGGSAGG [r6_679_JUSTAS],1.68 ± 0.025 kcal/mol,2 ± 0.05 kcal/mol,1.88 ± 0.058 kcal/mol
SAGGSAGGMIKYSEEAPDPSYRTEVEVTPVPGKVAIKTTTYRNENGVWTAEESTSVVSPEALLSSAGGSAGG [r6_778_JUSTAS],-0.703 ± 0.19 kcal/mol,0.341 ± 0.095 kcal/mol,0.0979 ± 0.088 kcal/mol
SAGGSAGGMILIKNEDGSLYLIEVETVTVTVKVKLPEELKELLKGIKPGDTITVTVTKVRIVKLSAGGSAGG [r6_907_TrROS_Hall],3.79 ± 0.15 kcal/mol,4.58 ± 0.11 kcal/mol,4.32 ± 0.17 kcal/mol

Sequence,folding stability dG unfold [1],folding stability dG unfold [2],folding stability dG unfold [3]
SAGGSAGGMIYKFTYPKGEPPLLFTYDPSTGKVTVTEPKTGKPLGTVDLSLEEAVKAGARIEPVSAGGSAGG [r6_832_JUSTAS],0.44 ± 0.073 kcal/mol,0.96 ± 0.085 kcal/mol,0.84 ± 0.057 kcal/mol
SAGGSAGGMKEITITNENGETLRIKVFNKETGEEKEIEFPAGMSLEDILKKLKEEEGLEVEIEPSAGGSAGG [r6_202_TrROS_Hall],2.27 ± 0.14 kcal/mol,3.16 ± 0.071 kcal/mol,3.01 ± 0.16 kcal/mol
SAGGSAGGMKIEIFQNDDGIYVRIKLKPPNGPPRTMVFPFTANQIKDALKQFPNYKIEDIEVYRSAGGSAGG [r6_879_TrROS],1.47 ± 0.12 kcal/mol,2.18 ± 0.09 kcal/mol,1.9 ± 0.15 kcal/mol
SAGGSAGGMKIIKYDKKTKKVLIYYDEETKEWYVRNKNGKIYKFKSVEEALKKLPVKVEIVKVPSAGGSAGG [r6_752_TrROS_Hall],1.5 ± 0.035 kcal/mol,1.6 ± 0.14 kcal/mol,1.67 ± 0.089 kcal/mol
SAGGSAGGMKITIEKLDPEKGVYLLTVKPPGPGKTLVIELPVEKEEEALAFAKKLEELGYEVENSAGGSAGG [r6_796_TrMRF],1.02 ± 0.02 kcal/mol,1.57 ± 0.12 kcal/mol,1.34 ± 0.13 kcal/mol
SAGGSAGGMKLTLRIEAPREEVERLAKEFEAQGIKVTVKPRPDGRVELTLEIDLPDTDKSLFDPSAGGSAGG [r6_8_TrMRF],2.49 ± 0.17 kcal/mol,2.67 ± 0.057 kcal/mol,2.55 ± 0.12 kcal/mol
SAGGSAGGMKTFTIDELKKLAEELGAEIYYDKDTNTIYIRTPGKIFRITINDDGTVTIEELPPKSAGGSAGG [r6_155_TrROS_Hall],3.05 ± 0.19 kcal/mol,3.99 ± 0.083 kcal/mol,3.66 ± 0.25 kcal/mol
SAGGSAGGMKVTLTPVSGEKYEIEVESEEEAKEKVEKLAKKLGIPGEVKVTIEKGDKTYELTIISAGGSAGG [r6_532_JUSTAS],2.98 ± 0.2 kcal/mol,2.5 ± 0.11 kcal/mol,2.39 ± 0.42 kcal/mol
SAGGSAGGMKVTTEGNAAGTNTVTVSYPDGSSVTRTLAPDDVVEVPVGGEVVLTVTVTANPDLPSAGGSAGG [r6_583_JUSTAS],-0.0728 ± 0.1 kcal/mol,0.0101 ± 0.061 kcal/mol,-0.0541 ± 0.12 kcal/mol
SAGGSAGGMLLDEDGNLVVKIKLENGEEFEAKVTEIKDGKITVEVNGKKVEINAKDIELLPEDESAGGSAGG [r6_575_TrROS_Hall],2.23 ± 0.088 kcal/mol,2.27 ± 0.05 kcal/mol,2.31 ± 0.096 kcal/mol
SAGGSAGGMLLVRIKVRRPDGSEETIVLEFESEEELKAAIEELLPPGWEVVEIELVPLGEELPESAGGSAGG [r6_872_TrROS_Hall],4.55 ± 0.17 kcal/mol,4.402 ± 0.042 kcal/mol,4.49 ± 0.11 kcal/mol
SAGGSAGGMLPAEELADYLEKNPGIEIEDIEPPDPGYITVKIKFPRPDPNGEKHKVEVTIQFPVSAGGSAGG [r6_154_TrROS],1.91 ± 0.24 kcal/mol,1 ± 0.075 kcal/mol,1.4 ± 0.32 kcal/mol
SAGGSAGGMLSPEVLEDPEKVIEFLKKMIPGLKIVVPPDAPPEVVEAAAKLAEETGIPVEIVVGSAGGSAGG [r6_129_TrMRF],1.06 ± 0.026 kcal/mol,-0.539 ± 0.48 kcal/mol,0.555 ± 0.18 kcal/mol
SAGGSAGGMLVFVVKKIKPGMSDEQKKALEKLVKPGDVIELSPEEIERLAKLPWIQEIKVYPLPSAGGSAGG [r6_381_TrROS_Hall],0.641 ± 0.12 kcal/mol,0.361 ± 0.34 kcal/mol,0.548 ± 0.2 kcal/mol
SAGGSAGGMPEYRVLDIEIETRPDMTPEEAVEEIRKALEPLGAIRVEAEPLPDGRIRVRVVLPESAGGSAGG [r6_881_TrMRF],3.5 ± 0.28 kcal/mol,2.45 ± 0.25 kcal/mol,3.27 ± 0.32 kcal/mol
